Laboratory results from the RNAGym collection of RNA variant scans (doi:10.1073/pnas.2313332121).

B1: TPR t1 (parent)
chain: GACCAAUCUGCCCUCAGAGCUCGAGAACAUCUUCGGAUGCAGAGGAGGCAGGCUUCGGUGGCGCGAUAGCGCCAACGUCCUCAACCUCCAAUGCAUCCCACCACAUGAUGAUGCCUGAAGAGCCUUGGUUUUUUG

Variants of: B1
Experiment: polymerase ribozyme fitness, log enrichment relative to wild type (log ratio); higher = more active; in vitro selection for triplet polymerase activity
Outline: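 Both subunits of a heterodimeric triplet polymerase ribozyme were given their own mutant library, built by PCR and transcribed. Each library was annealed with a biotinylated primer, the partner subunit and triplets, incubated frozen at −7 °C, and its extended constructs gel-excised, captured on streptavidin beads and amplified by RT-PCR, all in one round done in triplicate. Fitness is the logarithm of genotype enrichment relative to wild-type enrichment, with replicates averaged by inverse-variance weighting. That logarithm is base 2, and Illumina-sequenced genotypes needed ≥10 input reads and ≥1 read per output.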

Variant	polymerase ribozyme fitness (log ratio)
A26U C72U	-2.63
A27U A118G	-3.19
C28U G61C	-4.7
C28U G61A	-1.12
A27U G60U C82A U125G	-3.48
G25A G45U C88G A90G C99G C115A	-7.43
A27C C82G G110U	-5.23
C28A C89U U112A	-1.62
A26G A46C G52C	-4.5
G25A C31U G63U G77U G117A C124U	-7.34
A27C C72G U112C G120C U126C U131A	-4.66
A26U C49U A66G A84C C124G	-4.9
A27C G47A U54G G57U	-1.6
A26G G63C	-1.65
A29C C62G	-4.52
A26U G45A U54A	-4.06
A27G C64U	-2.01
A29C A37G	-2.11
A27C C62A	-2.54
A27C U55G G57C A111U G122A	-5.04
C28U G69U	-0.614
A27U C56G A91G U131A U133G	-5.19
A27U C97U U112A	-3.08
A27U C49G G51U C79G	-6.98

Variant	polymerase ribozyme fitness (log ratio)
A27G G42U A75G	-3.6
G25U A37U C40U G44U G47C C64A U106G U112A	-6.12
C28U C49A G61U C86U	-2.72
A27U U81C G120A G135A	-4.49
C28U C80A	-5.53
A26G G48A C53G C89U A91C	-4.13
C28G G60U U130G	-2.82
A24U U116C G128U	-6.51
A27C C85U C123U	-3.3
A27C C76A	-5.92
C28G C34G G110A G117U	-5.7
A27G A37U A121G	0.646
A24U G69U C88A C114A	-6.87
C28U G71C U87G	-3.85
C28G U54G C97U U130A U131C	-3.57
A27G C40U C49G C73U	-2.98
C28U U32A C70U G120C	-6.64
A26U G52A	-4.18
A26U C79G C124U	-4.91
C28U C40G G48U C85A	-3.6
A27U C62U A74G	-7.73
A26G C28G C70G C85U C98U G107U A119G G122A	-6.27
A26U A50C C56A C124A	-2.3
A26G U130A	-3.31

Variant	polymerase ribozyme fitness (log ratio)
A29C A90G G113U C114U	-3.29
A29C C53G A111U	-1.63
G25U G69U C102U A121U	-5.66
A27G C49G	-2.37
A27G C49U	-2.19
A29C C40U A41U C124U	-3.03
A27G C28A G52U	-5.13
C28A G48U C53U G57C G60A U106C	-5.56
G25C C34G C70A C104G G110U U116G	-8.24
C28G C56A	-1.87
A27U A46U	-4.77
G25A C31G U32G C40U C72U U106C A108U C124A	-7.62
A26U C123G	-1.74
A26U C72U C123U	-2.2
C28U C49G A91U U106A	-5.37
A27G C28U C56U U81A A83U A121C	-3.5
A27U C49U A90G G93U	-3.23
C28U C80U A90G C124G	-0.852
C28U C31A C85G A119G G120A	-7.42
C28G C82G C86A	-3.55
A27U A119C G120A	-2.76
A26G G120U	-1.88
C28G C34G G42U A46G C56A C104A A111G U131G	-5.4
A27U C76U	-3.39

Variant	polymerase ribozyme fitness (log ratio)
A26U C94U	-2.76
A26U C40A	-4.26
A26U C40U	-4.02
C28U G52U C73G U78G G120U	-4.03
A27C U54C	-2.56
A27U C79G G127U	-4.93
A26U C53U A74G G77U U125A	-4.77
A26G C86U	-2.13
A26U G120U	-3.12
A27G C56A C72U G120U	-2.12
A27C C72A	-3.22
A27G A41U	-2.67
C28A A119U	-4.75
C28U G39A	-2.12
A27U C53U G77A	-3.79
A26C U106A	-3.34
A27G C56A A74C U87A U112A	-0.205
A26G C94G A105C C123G	-5.27
C28U G39C C56G C104U	-5.32
A27U C104U	-3.5
C28G C62G	-4.58
A26G G93A C114A	-3.14
G25C A119G	-6.74
A27U C56U	-3.04

Variant	polymerase ribozyme fitness (log ratio)
A26G C49U C64U U87A	-3.25
A27G C49A U96A	-3.34
A26G U30A C104G C115A	-5.53
A29C C49U C72U	-4.03
A26G A37U C123U U133A	-2.78
A27U G47A U125G	-2.83
A26G U59A C62A G63A	-5.96
A27U U59C	-3.53
A27C C72U C124A	-1.07
A27U C31G G69U C79G G120C U130G U132A	-6.29
A26G G45A	-2.64
G25U C72U C88A U109C A119U C123U	-8.09
C28U G44U C49U G63C G110A	-2.74
C28A U54A G61U G110U	2.18
G25U C64G C94U C124G	-6.12
A26U C94U C123G U132C	-1.68
A27G C53G	-1.84
C28U C49A C72A C114G	-5.7
C28U C73A	-2.23
A27G C49U C123A	-1.76
A27U G51A A74C A83C	-7.03
A27G G39U C73U G110C	-3.91
A26U C49U C98U	-4.89
C28A G44U U78G G113A	-4.24

Variant	polymerase ribozyme fitness (log ratio)
A27U A37G G48A C72G A83U U130A	-4.93
A27U G117U C123G	-4.27
A26C U112C	-4.51
A26U A37U G52U A90U U112C	-6.53
A27U G60U G61C	-5.43
A27G C86U C94U	-1.98
C28G C62G C98U C124U	-5.55
C28G A83G U130C	-4.34
A26U G52A U112A U131C	-2.99
A24U G45A G60A C115U	-6.73
C28A A46U U54G C73U C82G A90G C123U	-4.12
A27C C56A C76G	-3.81
A27G G135U	-2.21
C28G C53U U67G C73G C98A C102A A111U C114G	-6
C28U C101G	-5.15
A27U G61U C102U U109G	-5.55
C28A G61U G120A	-3.5
C28U G57U C86A A90G G93U U96G G113C A121U	-7.69
C28A G61A	-4.06
C28U G71U C82A	-3.3
A27G C56U U96A U109G C115G C124U	-7.02
G25A G61U	-3.17
A27G G45C G63A C104A U131C	-6.14
A29C C102A U109G	-2.1

Variant	polymerase ribozyme fitness (log ratio)
A27U G39U	-4.25
A27U G39C	-3.26
C28U C115U	-3.6
A26G G44U C56U G120U U130A	-2.98
A26C C73A U81C C88A A108G C114G A119U	-6.8
A26U C70U U78C	-4.92
A26G C70U C94G A103G G117C	-7.12
C28G U54A G122U	-2.85
A26G G45C G48U C88U	-5.02
G25U G69U	-4.36
C28A C72A C123G U126C	-2
C28A G42A G77C G110U	-1.22
G25C G35A G44C C114G	-5.95
A26U A121U	-0.422
A27C G61C	-5.63
G25U G35A A41U U112G	-7.04
C28A G39U A83C C123U U133A	-4
A29C A41U C64U	-3.54
G25U C53A G69U G107A U116G C123U	-7.07
A27C A74C	-3.6
A26U C62U U78C G128C	-6.34
C28G G93A	-3.77
A29C A41G	-2.15
